Assay results published in US20090018074A1.
pKd: −log10 of the molar value.

What was measured:
[1] = biological target: Cad11-12 truncated Bt-R1a cadherin expressed in S2 cells (Manduca sexta); assay: 125I-Cry1Ab saturation binding on S2 cell suspensions; reference Cad12
[2] = biological target: Cad11-12 truncated Bt-R1a cadherin expressed in S2 cells (Manduca sexta); assay: 125I-Cry1Ab saturation binding on suspensions of S2 cells expressing the fragment
[3] = biological target: Cad12 truncated Bt-R1a cadherin expressed in S2 cells (Manduca sexta); assay: as above
[4] = biological target: Cad7-12 truncated Bt-R1a cadherin expressed in S2 cells (Manduca sexta); assay: as above
[5] = biological target: full length Bt-R1a cadherin expressed in Drosophila S2 cells (Manduca sexta); assay: 125I-Cry1Ab saturation binding on suspensions of S2 cells expressing full-length Bt-R1a
[6] = biological target: Cad7-12 truncated Bt-R1a cadherin expressed in S2 cells (Manduca sexta); assay: 125I-Cry1Ab saturation binding on suspensions of S2 cells expressing the fragment; dissociation constant (Kcom)
[7] = biological target: full length Bt-R1a cadherin expressed in Drosophila S2 cells (Manduca sexta); assay: 125I-Cry1Ab saturation binding on suspensions of S2 cells expressing full-length Bt-R1a; dissociation constant (Kcom)

For Cry1Ab toxin (ligand), the fold concentration of binding sites against Cad12 [1] was 3 fold, the Bmax (concentration of receptors) (fmoles/mg protein) [2] was 3320 and the Bmax (concentration of receptors) (fmoles/mg protein) [3] was 1410. For the same substance, the Bmax (concentration of receptors) (fmoles/mg protein) [4] was 506, the Bmax (concentration of receptors) (fmoles/mg protein) [5] was 625 and the pKd [6] was 8.69. For the same substance, the pKd [7] was 8.45.
